Test results as given in publication PMC10843684 (Molecular cell, 2023).

Target: T1, Gid2 (RING subunit of the GID E3 catalytic module) (S. cerevisiae, UniProt Q12508 1-421)
T1 sequence: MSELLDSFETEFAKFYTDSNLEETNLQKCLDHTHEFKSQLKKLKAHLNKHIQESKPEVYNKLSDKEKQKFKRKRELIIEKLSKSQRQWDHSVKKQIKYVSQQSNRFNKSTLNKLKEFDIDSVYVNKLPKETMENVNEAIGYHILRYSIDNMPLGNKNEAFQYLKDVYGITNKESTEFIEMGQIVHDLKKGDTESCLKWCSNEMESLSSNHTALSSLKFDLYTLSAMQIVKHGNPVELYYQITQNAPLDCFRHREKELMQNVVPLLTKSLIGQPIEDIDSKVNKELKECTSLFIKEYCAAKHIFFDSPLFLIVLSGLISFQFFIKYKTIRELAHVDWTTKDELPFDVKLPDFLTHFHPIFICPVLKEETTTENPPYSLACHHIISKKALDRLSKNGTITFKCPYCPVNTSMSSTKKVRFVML
Experiment: cryo-EM structure

B1: Ubc8 C85K, insect cell-expressed and phosphorylated (the E2 chain of the Ubc8~ubiquitin mimic) (enzyme, S. cerevisiae)
chain: MSSSKRRIETDVMKLLMSDHQVDLINDSMQEFHVKFLGPKDTPYENGVWRLHVELPDNYPYKSPSIGFVNKIFHPNIDIASGSIKLDVINSTWSPLYDLINIVEWMIPGLLKEPNGSDPLNNEAATLQLRDKKLYEEKIKEYIDKYATKEKYQQMFGGDNDSDDSDSGGDLQEEDSDSDEDMDGTGVSSGDDSVDELSEDLSDIDVSDDDDYDEVANQ
modifications: heterogeneously phosphorylated C-terminal extension (phosphoserines 202 and 207 modelled); K85 isopeptide-bonded to ubiquitin
binding result: binds
